Columns and labels:
[1] = biological target: sulfo-hirudin ([Leu1, Thr2]-hirudin with sulfotyrosine at position 63, expressed in E. coli) (UniProt P01050)
[2] = biological target: [Leu1, Thr2]-63-desulfo-hirudin (Lepirudin (Refludan)) (UniProt P01050)

## human α-thrombin (Diapharma)
[1]
  cleavage of the fluorogenic substrate by thrombin (fluorescence intensity over time): Cleavage of the fluorogenic substrate by thrombin, whose activity is inhibited to different degrees by sulfo-hirudin and desulfo-hirudin
[2]
  cleavage of the fluorogenic substrate by thrombin (fluorescence intensity over time): Cleavage of the fluorogenic substrate by thrombin, whose activity is inhibited to different degrees by sulfo-hirudin and desulfo-hirudin

— patent US8114627
